Tested on: endothelial cellular receptors for Factor IX (cultured bovine aortic endothelial cells)
Test: Competitive binding of [125I]-Factor IX to cultured bovine aortic endothelial cells
Settings: cultured bovine aortic endothelial cells, 4-5 hours at 4° C.; mean, SEM less than 20%; read-out: Inhibitory Constant, inhibition of binding of [125I]-Factor IX
Experimental: The purified peptides were tested for their ability to block the binding of bovine Factor IX and IXa to cultured bovine aortic endothelial cells. Bovine Factor IX and IXa for these studies were prepared and radioiodinated (using Na^125 I and the solid state lactoperoxidase technique) using methods described by Stern, et al. (J. Biol. Chem. 260, pp. 6717-6722 [1985]). Bovine aortic endothelial cells were obtained from the aortae of newborn calves as described by Stern, et al. (Proc. Natl. Acad. Sci. U.S.A., 80, pp. 4119-4123 [1983]). These endothelial cells were grown to confluence (1.3×10^5 cells/cm^2) in culture dishes. Binding assays were carried out by incubating either ^125 I-Factor IX or ^125 I-Factor IXa with endothelial cell monolayers in the presence of varying concentrations of one of the peptides. The buffer used in these experiments was Minimal Essential Medium containing 0.5 mg/ml transferring, and the incubation time was 4-5 hours at 4° C. At the end of the incubation period, the cultures were washed to remove unbound material. Then, specifically bound [^125 I]-Factor IX or [^125 I]-Factor IXa was eluted during exposure to EDTA-containing buffer as described by Stern, et al. (Proc. Natl. Acad. Sci. U.S.A., 80, pp. 4119-4123 [1983].

B1: Factor IX: bovine Factor IX, Vitamin K-dependent plasma glycoprotein, used as competitor (protein, UniProt P00741 26-462, looked up)
Coagulation factor IX: AECTVFLDRENATKILHRPKRYNSGKLEEFVRGNLERECKEEKCSFEEAREVFENTEKTTEFWKQYVDGDQCESNPCLNGGMCKDDINSYECWCQAGFEGTNCELDATCSIKNGRCKQFCKRDTDNKVVCSCTDGYRLAEDQKSCEPAVPFPCGRVSVSHISKKLTRAETIFSNTNYENSSEAEIIWDNVTQSNQSFDEFSRVVGGEDAERGQFPWQVLLHGEIAAFCGGSIVNEKWVVTAAHCIKPGVKITVVAGEHNTEKPEPTEQKRNVIRAIPYHSYNASINKYSHDIALLELDEPLELNSYVTPICIADRDYTNIFLKFGYGYVSGWGKVFNRGRSASILQYLKVPLVDRATCLRSTKFSIYSHMFCAGYHEGGKDSCQGDSGGPHVTEVEGTSFLTGIISWGEECAMKGKYGIYTKVSRYVNWIKEKTKLT
B1 was tested, and the Ki was 3 nM.
